Here are results for 58 variants from the FLAb antibody collection (doi:10.7554/elife.23156).

The Kd is the equilibrium constant for the complex coming apart.

A value given as a limit tells only on which side of the number the result lay.

Sequences and labels used below:
B1: scFv; the commonest letter at each place (parent)
chain 1: EVKLDETGGGLVQPGRPMKLSCVASGFTFSDYWMNWVRQSPEKGLEWVAQIRNKPYNYETYYSDSVKGRFTISRDDSKSSVYLQMNNLRVEDMGIYYCTGSYYGMDYWGQGTSVTVS
chain 2: DVVMTQTPLSLPVSLGDQASISCRSSQSLVHSNGNTYLRWYLQKPGQSPKVLIYKVSNRFSGVPDRFSGSGSGTDFTLKISRVEAEDLGVYFCSQSTHVPWTFGGGTKLEIK

The data set “fluorescein” covers variants of B1. Briefly: Kd (Tite-Seq). To be noted: with fluorescein; format: scFv 4-4-20, heavy + light.
Variants of B1 are the subject of data set [1]. The data set is described as follows: yeast surface expression (ratio to wild type); higher = more expressed. The note with it: format: scFv 4-4-20, heavy + light.

Consider chain 1 S101I Y102V, for which the Kd in the data set with fluorescein is at least 10 µM. The yeast surface expression in data set [1] is 0.488.
The like results for chain 1 S101D W108Y were, in that order, at least 10 µM and 0.608.
chain 1 S101D W108A: in the data set with fluorescein, the Kd is at least 10 µM. For the same variant, the yeast surface expression in data set [1] was found to be 0.443.
The like results for chain 1 S101D W108N were, in that order, at least 10 µM and 0.445.
The like results for chain 1 S101G Y102L were, in that order, at least 10 µM and 1.06.
The matching figures for chain 1 S101A D106L: 0.00166 µM and 0.302.
With chain 1 S101K Y102I, in the data set with fluorescein, the Kd was at least 10 µM. In addition, the yeast surface expression in data set [1] is 0.647.
For chain 1 S101F M105G, the Kd with fluorescein is at least 10 µM. The yeast surface expression in data set [1] was 0.559.
The like results for chain 1 S101F M105I were, in that order, at least 10 µM and 0.522.
The like results for chain 1 S101F M105L were, in that order, at least 10 µM and 0.483.
The like results for chain 1 S101C Y103L were, in that order, at least 10 µM and 0.522.
For chain 1 S101G D106A, the Kd with fluorescein is 0.0457 µM. In addition, in data set [1], the yeast surface expression was determined as 0.675.
In the case of chain 1 S101D G104D Y107K, the Kd with fluorescein was at least 10 µM. For the same variant, the yeast surface expression in data set [1] worked out at 0.674.
The like results for chain 1 S101H M105V were, in that order, at least 10 µM and 0.592.
The like results for chain 1 S101D D106C W108N were, in that order, at least 10 µM and 0.369.
Consider chain 1 S101H Y102R, for which the Kd with fluorescein was at least 10 µM. In addition, the yeast surface expression in data set [1] was 0.96.
The matching figures for chain 1 S101G M105A: at least 10 µM and 0.988.
The matching figures for chain 1 S101C M105Y Y107T: at least 10 µM and 0.488.
chain 1 S101C M105Y Y107D: the Kd with fluorescein is at least 10 µM. Besides, the yeast surface expression in data set [1] was found to be 0.281.
chain 1 S30Y Y32P: the Kd in the data set with fluorescein is at least 10 µM. For the same variant, the yeast surface expression in data set [1] worked out at 0.691.
The like results for chain 1 S101K D106V were, in that order, at least 10 µM and 0.257.
Turning to chain 1 S101K D106M, the Kd with fluorescein is at least 10 µM. Moreover, in data set [1], the yeast surface expression is 0.229.
Turning to chain 1 S101H Y107R, the Kd with fluorescein was at least 10 µM. Also, the yeast surface expression in data set [1] is 0.581.
The like results for chain 1 S101D Y103K were, in that order, at least 10 µM and 0.764.
The like results for chain 1 S101D Y103A were, in that order, at least 10 µM and 1.07.
The matching figures for chain 1 S101C G104V D106F: at least 10 µM and 0.361.
On to chain 1 S101C Y107S, for which, in the data set with fluorescein, the Kd was at least 10 µM. In addition, in data set [1], the yeast surface expression is 0.457.
The like results for chain 1 S101C Y107T were, in that order, at least 10 µM and 0.62.
With chain 1 S101C Y107C, in the data set with fluorescein, the Kd is at least 10 µM. In addition, in data set [1], the yeast surface expression worked out at 0.493.
The matching figures for chain 1 S101C Y107G: at least 10 µM and 0.245.
Regarding chain 1 S101D G109I, the Kd in the data set with fluorescein is at least 10 µM. For the same variant, the yeast surface expression in data set [1] was determined as 0.22.
The matching figures for chain 1 S101D G109H: at least 10 µM and 0.247.
The matching figures for chain 1 S101G Y107K: at least 10 µM and 0.907.
The like results for chain 1 S101H W108C were, in that order, at least 10 µM and 0.28.
For the variant chain 1 S101H W108Y, in the data set with fluorescein, the Kd was at least 10 µM. Also, the yeast surface expression in data set [1] came out at 0.408.
Regarding chain 1 S101I Y107Q, in the data set with fluorescein, the Kd is at least 10 µM. Also, the yeast surface expression in data set [1] was 0.376.
The matching figures for chain 1 S101I Y107K: at least 10 µM and 0.29.
The matching figures for chain 1 S101A G104N: at least 10 µM and 0.72.
Take chain 1 S101A Y107S: in the data set with fluorescein, the Kd is 0.00175 µM. For the same variant, in data set [1], the yeast surface expression was 0.854.
For chain 1 S101D D106R W108I, the Kd in the data set with fluorescein was 0.00251 µM. Besides, the yeast surface expression in data set [1] was determined as 0.452.
The matching figures for chain 1 S101E G104S: at least 10 µM and 0.804.
The matching figures for chain 1 S101G W108R: at least 10 µM and 0.436.
The like results for chain 1 S101K Y107V were, in that order, at least 10 µM and 0.507.
chain 1 S101E M105V D106P: the Kd with fluorescein was at least 10 µM. Moreover, in data set [1], the yeast surface expression was found to be 0.387.
For the variant chain 1 S101H D106C, the Kd with fluorescein was at least 10 µM. In addition, the yeast surface expression in data set [1] was determined as 0.467.
Consider chain 1 S101F G109S, for which the Kd in the data set with fluorescein was at least 10 µM. Moreover, the yeast surface expression in data set [1] was 0.424.
The like results for chain 1 S101I G109I were, in that order, at least 10 µM and 0.219.
The matching figures for chain 1 S101I M105V: at least 10 µM and 0.468.
chain 1 S101I M105N: the Kd with fluorescein is at least 10 µM. The yeast surface expression in data set [1] was 0.482.
The like results for chain 1 S101F Y102A were, in that order, at least 10 µM and 0.623.
As to chain 1 S101G Y103C, in the data set with fluorescein, the Kd is at least 10 µM. The yeast surface expression in data set [1] came out at 0.678.
The matching figures for chain 1 S101G Y103R: at least 10 µM and 0.949.
The like results for chain 1 S101I G104K were, in that order, at least 10 µM and 0.482.
Turning to chain 1 S101I G104T, the dissociation constant Kd with fluorescein was at least 10 µM. Moreover, the yeast surface expression in data set [1] was 0.4.
For chain 1 S101I G104Q, the Kd in the data set with fluorescein is at least 10 µM. For the same variant, in data set [1], the yeast surface expression is 0.397.
The matching figures for chain 1 S101D Y107E: at least 10 µM and 1.03.
With chain 1 S101D Y107S, in the data set with fluorescein, the Kd was at least 10 µM. Moreover, the yeast surface expression in data set [1] came to 0.672.
Regarding chain 1 S101D Y107I, in the data set with fluorescein, the dissociation constant (Kd) is at least 10 µM. In addition, the yeast surface expression in data set [1] turned out to be 1.02.
